T1: RP1 retropepsin inhibitor Ac-Leu-Val-Phe-aldehyde (Bachem N 1395.0005)
T1 chain: LVF

T2: RP2 retropepsin inhibitor Ac-Leu-Leu-Met-aldehyde (Bachem N 1315.0005)
T2 chain: LLM

T3: RP3 retropepsin inhibitor Ac-Leu-Leu-Nle-aldehyde (Bachem N 1320.0005)
T3 chain: LLX

T4: corneodesmosin extracted from human stratum corneum, Q15517
T4 chain: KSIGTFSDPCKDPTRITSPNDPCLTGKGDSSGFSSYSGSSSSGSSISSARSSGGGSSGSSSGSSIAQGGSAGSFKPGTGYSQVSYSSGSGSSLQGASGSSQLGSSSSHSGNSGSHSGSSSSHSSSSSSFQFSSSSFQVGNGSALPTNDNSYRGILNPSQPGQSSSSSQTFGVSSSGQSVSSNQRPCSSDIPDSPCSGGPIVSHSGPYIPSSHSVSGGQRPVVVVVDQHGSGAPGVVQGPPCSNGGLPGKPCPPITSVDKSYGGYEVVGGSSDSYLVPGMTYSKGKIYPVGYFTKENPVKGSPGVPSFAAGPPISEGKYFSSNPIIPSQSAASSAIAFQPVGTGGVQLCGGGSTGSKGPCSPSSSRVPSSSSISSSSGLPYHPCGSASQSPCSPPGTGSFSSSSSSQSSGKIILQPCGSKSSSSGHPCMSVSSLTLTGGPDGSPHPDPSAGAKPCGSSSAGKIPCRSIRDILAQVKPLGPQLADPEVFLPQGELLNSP

T5: peptide substrate EFDLELIEED (SEQ ID NO: 31)
T5 chain: EFDLELIEED


Columns and labels:
[1] = target: T1, RP1 retropepsin inhibitor …
[2] = target: T2, RP2 retropepsin inhibitor …
[3] = target: T3, RP3 retropepsin inhibitor …
[4] = target: casein substrate sold under the name Enzchek (Molecular Probes)
[5] = target: T4, corneodesmosin extracted from human …
[6] = target: oxidized beta-chain of insulin (Sigma)
[7] = target: T5, peptide substrate EFDLELIEED (SEQ ID …)
[8] = target: peptide substrates with amino acid substitutions (among SEQ ID NO: 32, 33, 34, 35)

Chain of oxidized beta-chain of insulin (Sigma) (chain, as listed by the source): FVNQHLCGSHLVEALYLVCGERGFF

Protein | kinetics for casein hydrolysis (fluorescence 485/535 nm) [1] | kinetics for casein hydrolysis (fluorescence 485/535 nm) [2] | kinetics for casein hydrolysis (fluorescence 485/535 nm) [3] | caseinolytic activity [4] | % Residual corneodesmosin T24 h/T0*100 [5] [%] | hydrolysis of the substrate followed by HPLC [6] | autocleavage in acetate buffer pH 4.5, SDS-PAGE over time | hydrolysis of quenched peptide substrate (fluorescence 340/450 nm) [7] | hydrolysis of quenched peptide substrate (fluorescence 340/450 nm) [8]
activated SASPase (SEQ ID NO: 6) (protein) ANSMGKGYYLKGKIGKVPVRFLVDSGAQVSVVHPNLWEEVTDGDLDTLQPFENVVKVANGAEMKILGVWDTAVSLGKLKLKAQFLVANASAEEAIIGTDVLQDHNAILDFEHRTCTLKGKKFRLLPVGGSLEDEFDLE | the kinetics for casein hydrolysis, in the presence of the RP1 and RP2 retropepsin inhibitors, are lower than the control | the kinetics for casein hydrolysis, in the presence of the RP1 and RP2 retropepsin inhibitors, are lower than the control | the kinetics for casein hydrolysis, in the presence of the RP3 retropepsin inhibitor, are significantly higher than those obtained under the control conditions | Its caseinolytic activity was, moreover, demonstrated (results not shown) | 75 | These results show that the activated SASPase is capable of degrading insulin |  |  | 
recombinant fusion protein GST-SASPase delta1-84 (SEQ ID NO: 4) (protein) MAGSGARSEEGRRQHAFVPEPFDGANVVPNLWLHSFEVINDLNHWDHITKLRFLKESLRGEALGVYNRLSPQDQGDYGTVKEALLKAFGVPGAAPSHLPKEIVFANSMGKGYYLKGKIGKVPVRFLVDSGAQVSVVHPNLWEEVTDGDLDTLQPFENVVKVANGAEMKILGVWDTAVSLGKLKLKAQFLVANASAEEAIIGTDVLQDHNAILDFEHRTCTLKGKKFRLLPVGGSLEDEFDLELIEEDPSSEEGRQELSH |  |  |  |  |  |  | A decrease in the whole form GST-SASPase C27 is observed over time, which demonstrates an autocleavage and, consequently, an autoactivation | the natural (wt) peptide is effectively hydrolyzed by the SASPase | amino acid substitutions in the sequence of this peptide can generate substrates for which the SASPase has greater affinity
